Measured values taken from patent US20090191235A1.

How the values were obtained:
17b antibody = test: SPR (Biacore); 17b on-rate with CD4 over without CD4
2-domain CD4 [1] = target: 2-domain CD4 (UniProt P01730); test: SPR (Biacore), 2-domain CD4 immobilised, gp120 analyte
[2] = target: CD4 as used in isothermal titration calorimetry (UniProt P01730); test: ITC, drawn table of thermodynamic values of CD4-gp120 binding
[3] = target: CD4 as used in isothermal titration calorimetry (UniProt P01730); test: ITC, drawn table of thermodynamic values, column 'Kd (nM) to sCD4'
2-domain CD4 [4] = target: 2-domain CD4 (UniProt P01730); test: ITC, titration of HXBc2 core with sCD4(D1D2) at 37°C, value in the box beside the curve
2-domain CD4 [5] = target: 2-domain CD4 (UniProt P01730); test: ITC, titration of HXBc2 core with sCD4(D1D2) at 37°C, stoichiometry marked at molar ratio 1.0 (CD4/core gp120)

In the case of “gp120 HXBc2 core, wild type (from UniProt P04578 83-492)”, the CD4 Induction (17b antibody) is reported as 79.9, the Kd (2-domain CD4 [1]) is reported as 29.5 nM and the -TΔS [2] is reported as 40 kcal/mol. It also gave a ΔH [2] of -49.7 kcal/mol, a Kd [3] of 87 nM and a -TΔS (2-domain CD4 [4]) of 40 kcal/mol. The Kd (2-domain CD4 [4]) was 117 nM, the ΔH (2-domain CD4 [4]) was -49 kcal/mol and the n (2-domain CD4 [5]) was 1.
